Assay results as given in paper PMC11161652, “ASXLs binding to the PHD2/3 fingers of MLL4 provides a mechanism for the recruitment of BAP1 to active enhancers” (Nature Communications, 2024).

B1: PHD2 and PHD3 fingers of human MLL4 (aa 227-324) [human] / ASXL2 peptide (residues 650-670 of ASXL2) [human] (parent complex)
chain 1: ARCAVCEGPGELCDLFFCTSCGHHYHGACLDTALTARKRAGWQCPECKVCQACRKPGNDSKMLVCETCDKGYHTFCLKPPMEELPAHSWKCKACRVCR
chain 2: NRTGARTLADIKAKAQLVKAQ

Variants of: B1
Experiment: fluorescence spectroscopy

Q: How did the Kd turn out when chain 1 E66K was run?
A: 10 µM

Variants of: B1
Experiment: fluorescence spectroscopy
Remark: another data set of the same source

Q: With chain 2 R6I as the variant, how does the Kd read?
A: 11 µM
